Measurements from paper PMC8887125, “RBBP6 activates the pre-mRNA 3′ end processing machinery in humans” (Genes & Development, 2022).
Positions count from the first letter of the chain named.

Legend:
[1] = biological target: T1, CPSF73 (Homo sapiens, UniProt Q9UKF6); assay: in vitro SV40 pre-mRNA cleavage assay with purified proteins, dose response by denaturing gel; type: biochemical
T1 construct: gene CPSF3; CPSF73 within the purified recombinant seven-subunit CPSF complex (mPSF + mCF); with CPSF subunits (CPSF100, symplekin, CPSF160, WDR33, CPSF30, hFip1) with CStF, CFIIm and RBBP6 (1-335)

[2] = biological target: T2, cleavage and polyadenylation specificity factor (CPSF), recombinant seven-subunit complex with hFip1 isoform 4 (human, UniProt Q10570 1-1443; Q9C0J8 1-576; O95639-2 1-244; Q6UN15 1-28; Q6UN15 44-393; Q9UKF6 …, F393K); assay: SEC; 2.5 µM CPSF, mCF or mCF_(symplekin ΔNTD) incubated with 10 µM SSU72 for 30 min on ice; Superose 6 Increase 3.2/300; HEPES-NaOH pH 8.0, 150 mM NaCl, 0.5 mM TCEP; peak fractions on SDS-PAGE; conditions: both partners purified
T2 construct: CPSF160, human; synthetic codon-optimised gene for the full-length protein; WDR33, human, residues 1-576 (unstructured region removed); CPSF30, human, isoform 2 (short isoform); synthetic gene for the isoform; hFip1, human; isoform 4 (UniProt Q6UN15-4) was built from residues 1-28 and 44-393 of the full-length protein; this piece is 1-28; second piece of isoform 4 (UniProt Q6UN15-4): residues …

[3] = biological target: T3, mammalian cleavage factor (mCF), wild type: CPSF73, CPSF100 and symplekin (human, UniProt Q9UKF6 1-684; Q9P2I0 1-782; Q92797 1-1274); assay: as above; conditions: both partners purified
T3 construct: CPSF73, human; synthetic gene for the full-length protein; CPSF100, human; symplekin, human; full coding region; also called mCFWT; source: Sf9 insect cells (baculovirus, pBig1), purified (Strep-Tactin, Resource Q, Superose 6); not shown: TEV site-StrepII (SII), C-terminal, kept; copies: + +
T3 sequence (Q9UKF6 whole entry, chain 1 of 3): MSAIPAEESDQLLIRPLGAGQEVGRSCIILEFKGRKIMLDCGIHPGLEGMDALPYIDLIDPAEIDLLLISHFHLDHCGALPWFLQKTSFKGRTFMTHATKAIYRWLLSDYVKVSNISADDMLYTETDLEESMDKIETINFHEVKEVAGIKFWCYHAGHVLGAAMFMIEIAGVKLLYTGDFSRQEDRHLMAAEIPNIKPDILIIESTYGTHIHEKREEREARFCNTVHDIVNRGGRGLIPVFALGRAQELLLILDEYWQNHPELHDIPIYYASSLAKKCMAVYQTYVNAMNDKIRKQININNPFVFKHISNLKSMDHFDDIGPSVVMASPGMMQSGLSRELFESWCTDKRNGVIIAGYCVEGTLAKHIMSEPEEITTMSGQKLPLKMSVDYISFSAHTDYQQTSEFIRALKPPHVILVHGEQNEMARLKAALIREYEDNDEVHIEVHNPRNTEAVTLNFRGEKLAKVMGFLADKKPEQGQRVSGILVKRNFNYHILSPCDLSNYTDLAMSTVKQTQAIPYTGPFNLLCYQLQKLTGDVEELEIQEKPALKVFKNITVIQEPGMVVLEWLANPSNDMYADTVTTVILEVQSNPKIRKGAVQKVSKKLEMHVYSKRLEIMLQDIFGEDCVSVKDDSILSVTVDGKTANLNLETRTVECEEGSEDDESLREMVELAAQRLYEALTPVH
T3 sequence (Q9P2I0 whole entry, chain 2 of 3): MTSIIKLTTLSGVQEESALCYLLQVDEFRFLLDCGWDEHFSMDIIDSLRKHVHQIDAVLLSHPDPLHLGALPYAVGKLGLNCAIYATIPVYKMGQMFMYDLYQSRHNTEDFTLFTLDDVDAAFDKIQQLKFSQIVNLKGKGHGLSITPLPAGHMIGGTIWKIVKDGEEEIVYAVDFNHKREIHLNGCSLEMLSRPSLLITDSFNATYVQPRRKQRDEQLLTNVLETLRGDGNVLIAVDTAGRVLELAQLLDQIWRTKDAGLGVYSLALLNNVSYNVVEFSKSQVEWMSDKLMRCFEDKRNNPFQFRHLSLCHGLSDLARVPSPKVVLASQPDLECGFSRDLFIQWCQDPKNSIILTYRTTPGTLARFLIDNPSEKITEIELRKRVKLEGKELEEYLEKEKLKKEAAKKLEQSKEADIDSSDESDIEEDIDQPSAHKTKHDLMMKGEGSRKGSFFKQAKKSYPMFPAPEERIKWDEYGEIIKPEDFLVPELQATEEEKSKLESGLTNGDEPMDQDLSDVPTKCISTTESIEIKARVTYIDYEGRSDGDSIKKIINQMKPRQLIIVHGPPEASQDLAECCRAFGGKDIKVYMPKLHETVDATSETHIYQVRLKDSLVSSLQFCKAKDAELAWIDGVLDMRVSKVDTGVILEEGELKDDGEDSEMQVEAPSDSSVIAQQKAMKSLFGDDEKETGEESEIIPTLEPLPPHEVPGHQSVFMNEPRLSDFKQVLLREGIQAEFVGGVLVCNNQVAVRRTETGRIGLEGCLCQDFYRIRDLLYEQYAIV
T3 sequence (Q92797 whole entry, chain 3 of 3): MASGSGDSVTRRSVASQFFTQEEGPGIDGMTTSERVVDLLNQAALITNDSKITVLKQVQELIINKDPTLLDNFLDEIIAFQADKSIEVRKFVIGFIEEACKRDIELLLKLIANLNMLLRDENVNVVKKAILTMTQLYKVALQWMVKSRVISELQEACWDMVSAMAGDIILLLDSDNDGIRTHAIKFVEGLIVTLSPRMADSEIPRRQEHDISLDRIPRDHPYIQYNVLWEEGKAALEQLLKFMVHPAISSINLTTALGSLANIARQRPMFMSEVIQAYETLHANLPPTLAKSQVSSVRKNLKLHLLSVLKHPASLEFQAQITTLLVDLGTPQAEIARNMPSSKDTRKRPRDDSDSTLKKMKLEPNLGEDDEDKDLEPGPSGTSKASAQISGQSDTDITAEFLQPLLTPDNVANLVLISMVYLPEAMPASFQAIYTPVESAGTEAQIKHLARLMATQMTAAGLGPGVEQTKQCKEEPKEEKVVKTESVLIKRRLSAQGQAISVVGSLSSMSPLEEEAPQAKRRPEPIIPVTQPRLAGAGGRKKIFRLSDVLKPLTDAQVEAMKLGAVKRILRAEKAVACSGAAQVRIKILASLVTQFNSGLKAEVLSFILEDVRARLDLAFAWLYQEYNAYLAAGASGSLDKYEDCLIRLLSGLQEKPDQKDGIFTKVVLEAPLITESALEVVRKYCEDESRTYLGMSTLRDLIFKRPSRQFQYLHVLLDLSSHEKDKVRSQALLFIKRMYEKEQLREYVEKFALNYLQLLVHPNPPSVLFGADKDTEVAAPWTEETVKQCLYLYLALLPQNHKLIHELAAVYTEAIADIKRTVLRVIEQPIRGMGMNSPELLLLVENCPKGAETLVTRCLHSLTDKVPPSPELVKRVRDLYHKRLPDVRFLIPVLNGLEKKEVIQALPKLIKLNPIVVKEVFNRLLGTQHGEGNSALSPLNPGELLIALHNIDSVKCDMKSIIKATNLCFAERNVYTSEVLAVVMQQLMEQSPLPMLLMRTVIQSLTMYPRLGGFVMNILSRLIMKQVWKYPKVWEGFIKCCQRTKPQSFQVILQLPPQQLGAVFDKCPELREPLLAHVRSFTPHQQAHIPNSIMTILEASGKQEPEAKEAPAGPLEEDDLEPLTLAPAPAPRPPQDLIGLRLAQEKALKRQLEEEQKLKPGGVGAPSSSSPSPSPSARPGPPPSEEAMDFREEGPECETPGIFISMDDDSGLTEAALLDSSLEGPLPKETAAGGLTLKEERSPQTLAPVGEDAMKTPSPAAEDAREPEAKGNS

[4] = biological target: CPSF (seven subunits);RBBP6 1-335 (Homo sapiens;Homo sapiens, UniProt Q10570;Q9C0J8;O95639;Q6UN15-4;Q9UKF6;Q9P2I0;Q92797;Q7Z6E9 …, internal_change|); assay: size exclusion chromatography; 2.5 uM CPSF, 7.5 uM RBBP6, 5 uM RNA; RBBP6 substoichiometric; EMSA: 100 nM RNA, 15 min on ice, 10% native PAGE at 4 C (binding buffer not stated); SEC: HEPES-NaOH pH 8.0, 50 mM NaCl, 0.5 mM TCEP; pull-down: 20 mM HEPES-NaOH pH 8.0, 50 mM NaCl, 0.5 mM TCEP, 2 mM Mg(OAc)2, 4 C; conditions: protein: recombinant;recombinant; tags: StrepII on WDR33 and symplekin;C-terminal TEV-StrepII; copies: 1;1;1;1;1;1;1;1; label: 5'-FAM
[5] = biological target: T4, RBBP6 D43K R74E (Homo sapiens, UniProt Q7Z6E9 1-335, D43K;R74E); assay: EMSA; no CPSF; binding unaffected vs WT; EMSA: 100 nM RNA, 15 min on ice, 10% native PAGE at 4 C (binding buffer not stated); SEC: HEPES-NaOH pH 8.0, 50 mM NaCl, 0.5 mM TCEP; pull-down: 20 mM HEPES-NaOH pH 8.0, 50 mM NaCl, 0.5 mM TCEP, 2 mM Mg(OAc)2, 4 C; conditions: protein: recombinant; tags: C-terminal TEV-StrepII; label: 5'-FAM
T4 sequence: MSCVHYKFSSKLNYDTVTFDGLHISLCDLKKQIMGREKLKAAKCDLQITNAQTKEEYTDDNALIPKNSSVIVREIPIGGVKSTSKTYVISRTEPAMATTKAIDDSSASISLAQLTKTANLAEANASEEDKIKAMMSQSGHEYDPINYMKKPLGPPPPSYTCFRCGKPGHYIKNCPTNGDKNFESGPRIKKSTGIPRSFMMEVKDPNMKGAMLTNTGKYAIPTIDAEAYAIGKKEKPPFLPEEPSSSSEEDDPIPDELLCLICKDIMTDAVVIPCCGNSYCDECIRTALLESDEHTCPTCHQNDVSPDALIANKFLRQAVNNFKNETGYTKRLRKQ

[6] = biological target: T5, RBBP6 P195G (Homo sapiens, UniProt Q7Z6E9 1-335, P195G); assay: as above; conditions: protein: recombinant; tags: C-terminal TEV-StrepII; label: 5'-FAM
T5 sequence: T4 sequence with K43D, E74R, P195G

[7] = biological target: T6, RBBP6 Y228G (Homo sapiens, UniProt Q7Z6E9 1-335, Y228G); assay: as above; conditions: protein: recombinant; tags: C-terminal TEV-StrepII; label: 5'-FAM
T6 sequence: T4 sequence with K43D, E74R, Y228G

[8] = biological target: T7, RBBP6 1-335 (Homo sapiens, UniProt Q7Z6E9 1-335); assay: EMSA; no CPSF; 100 nM RNA; EMSA: 100 nM RNA, 15 min on ice, 10% native PAGE at 4 C (binding buffer not stated); SEC: HEPES-NaOH pH 8.0, 50 mM NaCl, 0.5 mM TCEP; pull-down: 20 mM HEPES-NaOH pH 8.0, 50 mM NaCl, 0.5 mM TCEP, 2 mM Mg(OAc)2, 4 C; conditions: protein: recombinant; tags: C-terminal TEV-StrepII; label: 5'-FAM
T7 sequence: T4 sequence with K43D, E74R

Q: With CN1CCN(CCOc2c(Cl)cc(C(=O)N[C@@H](Cc3ccccc3)C(=O)O)c(O)c2Cl)CC1 [JTE-607 acid] as the molecule, how does the IC50 [1] read?
A: ~350 nM

B1: SSU72 (enzyme, human, UniProt Q9NP77 1-194, looked up)
chain: MPSSPLRVAVVCSSNQNRSMEAHNILSKRGFSVRSFGTGTHVKLPGPAPDKPNVYDFKTTYDQMYNDLLRKDKELYTQNGILHMLDRNKRIKPRPERFQNCKDLFDLILTCEERVYDQVVEDLNSREQETCQPVHVVNVDIQDNHEEATLGAFLICELCQCIQHTEDMENEIDELLQEFEEKSGRTFLHTVCFY
notes: SSU72, human; the coding region amplified from the synthetic full-length gene; also called human SSU72; phosphatase SSU72; source: E. coli BL21(DE3) Star, purified (HisTrap, 3C cleavage, Superdex 75); not shown: His6, N-terminal, cleaved
Q: What does the source list for B1?
A: binding result [2]: binds; binding result [3]: binds

Q: Does AUGAUCUAGGAGACACAAUAAAGGCAAUGUUUUUAUUUGUA (ssRNA) [5'-FAM-L3 41-nt RNA] bind [4]?
A: binds

Q: Does AUGAUCUAGGAGACACAAUAAAGGCAAUGUUUUUAUUUGUA (ssRNA) [5'-FAM-L3 41-nt RNA] bind [5]?
A: binds

Q: Does AUGAUCUAGGAGACACAAUAAAGGCAAUGUUUUUAUUUGUA (ssRNA) [5'-FAM-L3 41-nt RNA] bind [6]?
A: binds

Q: Does AUGAUCUAGGAGACACAAUAAAGGCAAUGUUUUUAUUUGUA (ssRNA) [5'-FAM-L3 41-nt RNA] bind [7]?
A: binds

Q: Does AUGAUCUAGGAGACACAAUAAAGGCAAUGUUUUUAUUUGUA (ssRNA) [5'-FAM-L3 41-nt RNA] bind [8]?
A: binds
